We go through eleven molecules from patent US20060257938A1, “Method of screening for drugs that block ligand binding to a lipid binding protein” (priority 2005, published 2006).

Holding throughout (type): binding
A short description of test [1]: Probe fluorescence ratio response to arachidonic acid relative to ADIFAB2. To be noted: arachidonic acid; response relative to ADIFAB2. In short, it runs like this: (§1)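 Each fatty acid's response was expressed relative to ADIFAB2, the rI-FABP-L72A probe, as ΔR/ΔRreference. ΔR is the change in the background-corrected two-wavelength intensity ratio R=Fλ1/Fλ2 from its analyte-free baseline R0. Emission was read near about 420-480 nm for unbound and about 495-580 nm for FFA-bound probe.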

Test [2] in a line: Probe fluorescence ratio response to linolenic acid relative to ADIFAB2. The conditions noted are these: response relative to ADIFAB2. The method in brief:
as §1

A short description of test [3]: Probe fluorescence ratio response to linoleic acid relative to ADIFAB2. To be noted: response relative to ADIFAB2. The method in brief:
as §1

Test [4] can be described thus: Probe fluorescence ratio response to oleic acid relative to ADIFAB2. To be noted: response relative to ADIFAB2. In short, it runs like this: as §1
A short description of test [5]: Probe fluorescence ratio response to palmitic acid relative to ADIFAB2. The conditions noted are these: response relative to ADIFAB2. In short, it runs like this:
as §1

Test [6] is described as follows: Probe fluorescence ratio response to palmitoleic acid relative to ADIFAB2. The conditions noted are these: response relative to ADIFAB2. From the text: (§2) In an alternate preferred embodiment, the protein is rI-FABP that has Ala substituted for Leu at position 72 (rI-FABP-L72A) with the resulting probe named ADIFAB2. […] Other probes useful in embodiments of the invention are shown in Tables 1-6 and are also described in U.S. application Ser. No. 11/085,792, filed Mar. 21, 2005 which is incorporated herein by reference. The indicated substitutions are with reference to the ADIFAB protein of SEQ ID NO: 2.
(§3) ADIFAB2 also has an altered spectral response, making it especially useful for measurements of FFAu in blood samples (Apple et al, Clinical Proteomics, (2004) 1:41-44, U.S. patent application Ser. No. 10/670,958). The wavelengths at the maximum intensities emitted by these fluorescently-labeled I-FABP's in the absence of FFA is about 420 to 480 nm. The emission wavelengths at the maximum intensities emitted by these fluorescently-labeled I-FABP's with FFA bound are between about 495 to 580 nm. Experiments typically involve measuring the fluorescence response within both emission maxima or at wavelengths for which the effect of interfering molecules such as hemoglobin can be eliminated as described in U.S. application Ser. No. 10/670958 and PCT/US2004/030521 and the calculation of the ratio ‘R’ of the two fluorescence intensities. The baseline value for this ratio, measured in the absence of analyte, is designated R0.
(§4) The intensity ratio (“R” value) is determined as follows. The ratio is calculated using the following formula: R=Fλ1/Fλ2 wherein, Fλ1 is the measured fluorescence intensities (intensity of sample with probe present minus intensity of sample without probe present) at wavelength 1 and Fλ2 is the measured fluorescence intensities (intensity of sample with probe present minus intensity of sample without probe present) at wavelength 2. Then, for a given probe, ΔR, the difference in R value between the measurement in the presence of the test compound (agent) and in the absence of the test compound (agent), is calculated as follows: ΔR=R+agent−R0 In some embodiments, the ΔR value may then be compared to some reference, for example, an agent with a known affinity for a given probe, by ΔR/ΔRreference. Measurements of fluorescence intensities are obtained using standard techniques.

The nature of test [7]: Probe fluorescence ratio response to stearic acid relative to ADIFAB2. The conditions noted are these: response relative to ADIFAB2.
Text: as §2, §3, §4

B1: 72S 73W 74S (protein, listed as Rattus norvegicus)
chain: AFDGTWKVDRNENYEKFMEKMGINVVKRKLGAHDNLKLTITQEGNKFTVKESSNFRNIDVVFELGVDFAYSSWSGTELTGTWTMEGNKLVGKFKRVDNGKELIAVREISGNELIQTYTYEGVEAKRIFKKE
modifications: PEPTIDE (1)...(131) wild-type rat intestinal fatty acid binding protein
With B1, the “DR/DR AA” value in test [1] was determined as 3.545. Moreover, the “DR/DR LNA” value in test [2] was found to be 4.147. In addition, the “DR/DR LA” value in test [3] is 3.787. Moreover, the “DR/DR OA” value in test [4] is given as 2.863. Besides, in test [5], the “DR/DR PA” value was determined as 3.536. Further, the “DR/DR POA” value in test [6] stood at 4.656. For the same molecule, the “DR/DR SA” value in test [7] came to 1.106.

B2: 21F 78V 102V 72A (protein, listed as Rattus norvegicus)
chain: AFDGTWKVDRNENYEKFMEKFGINVVKRKLGAHDNLKLTITQEGNKFTVKESSNFRNIDVVFELGVDFAYSAADGTEVTGTWTMEGNKLVGKFKRVDNGKEVIAVREISGNELIQTYTYEGVEAKRIFKKE
modifications: PEPTIDE (1)...(131) wild-type rat intestinal fatty acid binding protein
Regarding B2, the “DR/DR AA” value in test [1] worked out at 4.511. For the same molecule, the “DR/DR LNA” value in test [2] came out at 3.775. In test [3], the “DR/DR LA” value is recorded as 4.204. Also, the “DR/DR OA” value in test [4] worked out at 4.223. In test [5], the “DR/DR PA” value came out at 2.756. In addition, the “DR/DR POA” value in test [6] is 3.365. Also, the “DR/DR SA” value in test [7] was 3.120.

B3: 73W 72A 74F (protein, listed as Rattus norvegicus)
chain: AFDGTWKVDRNENYEKFMEKMGINVVKRKLGAHDNLKLTITQEGNKFTVKESSNFRNIDVVFELGVDFAYSAWFGTELTGTWTMEGNKLVGKFKRVDNGKELIAVREISGNELIQTYTYEGVEAKRIFKKE
modifications: PEPTIDE (1)...(131) wild-type rat intestinal fatty acid binding protein
Consider B3, for which the “DR/DR AA” value in test [1] is listed as 3.378. Further, the “DR/DR LNA” value in test [2] was 3.875. Further, the “DR/DR LA” value in test [3] was found to be 3.718. In addition, the “DR/DR OA” value in test [4] was 3.255. For the same molecule, the “DR/DR PA” value in test [5] stood at 3.264. The “DR/DR POA” value in test [6] came out at 5.256. In test [7], the “DR/DR SA” value was 1.485.

B4: 72W 73T 74G (protein, listed as Rattus norvegicus)
chain: AFDGTWKVDRNENYEKFMEKMGINVVKRKLGAHDNLKLTITQEGNKFTVKESSNFRNIDVVFELGVDFAYSWTGGTELTGTWTMEGNKLVGKFKRVDNGKELIAVREISGNELIQTYTYEGVEAKRIFKKE
modifications: PEPTIDE (1)...(131) wild-type rat intestinal fatty acid binding protein
B4: in test [1], the “DR/DR AA” value worked out at 2.808. The “DR/DR LNA” value in test [2] stood at 3.394. Moreover, the “DR/DR LA” value in test [3] was determined as 3.099. The “DR/DR OA” value in test [4] stood at 2.514. In addition, in test [5], the “DR/DR PA” value worked out at 2.934. Further, the “DR/DR POA” value in test [6] was found to be 4.105. In test [7], the “DR/DR SA” value is reported as 1.040.

B5: 72T 74I (protein, listed as Rattus norvegicus)
chain: AFDGTWKVDRNENYEKFMEKMGINVVKRKLGAHDNLKLTITQEGNKFTVKESSNFRNIDVVFELGVDFAYSTAIGTELTGTWTMEGNKLVGKFKRVDNGKELIAVREISGNELIQTYTYEGVEAKRIFKKE
modifications: PEPTIDE (1)...(131) wild-type rat intestinal fatty acid binding protein
B5: in test [1], the “DR/DR AA” value was 2.502. In test [2], the “DR/DR LNA” value is on record as 3.169. Besides, the “DR/DR LA” value in test [3] was found to be 3.156. The “DR/DR OA” value in test [4] turned out to be 2.660. The “DR/DR PA” value in test [5] came out at 2.476. The “DR/DR POA” value in test [6] worked out at 3.410. Moreover, the “DR/DR SA” value in test [7] was 1.806.

B6: 72T 73V 74L (protein, listed as Rattus norvegicus)
chain: AFDGTWKVDRNENYEKFMEKMGINVVKRKLGAHDNLKLTITQEGNKFTVKESSNFRNIDVVFELGVDFAYSTVLGTELTGTWTMEGNKLVGKFKRVDNGKELIAVREISGNELIQTYTYEGVEAKRIFKKE
modifications: PEPTIDE (1)...(131) wild-type rat intestinal fatty acid binding protein
Regarding B6, in test [1], the “DR/DR AA” value was 2.774. For the same molecule, the “DR/DR LNA” value in test [2] worked out at 3.508. In test [3], the “DR/DR LA” value was found to be 3.165. In addition, in test [4], the “DR/DR OA” value is given as 2.832. For the same molecule, the “DR/DR PA” value in test [5] amounted to 2.674. In addition, the “DR/DR POA” value in test [6] is 3.642. Besides, in test [7], the “DR/DR SA” value stood at 1.411.

B7: 72T 74V (protein, listed as Rattus norvegicus)
chain: AFDGTWKVDRNENYEKFMEKMGINVVKRKLGAHDNLKLTITQEGNKFTVKESSNFRNIDVVFELGVDFAYSTAVGTELTGTWTMEGNKLVGKFKRVDNGKELIAVREISGNELIQTYTYEGVEAKRIFKKE
modifications: PEPTIDE (1)...(131) wild-type rat intestinal fatty acid binding protein
On to B7, for which the “DR/DR AA” value in test [1] amounted to 2.680. In addition, in test [2], the “DR/DR LNA” value worked out at 3.680. In addition, the “DR/DR LA” value in test [3] was 3.630. In test [4], the “DR/DR OA” value was 2.957. The “DR/DR PA” value in test [5] is on record as 3.149. Also, the “DR/DR POA” value in test [6] stood at 4.074. The “DR/DR SA” value in test [7] came to 1.781.

B8: 72S 73L 74A (protein, listed as Rattus norvegicus)
chain: AFDGTWKVDRNENYEKFMEKMGINVVKRKLGAHDNLKLTITQEGNKFTVKESSNFRNIDVVFELGVDFAYSSLAGTELTGTWTMEGNKLVGKFKRVDNGKELIAVREISGNELIQTYTYEGVEAKRIFKKE
modifications: PEPTIDE (1)...(131) wild-type rat intestinal fatty acid binding protein
Take B8: the “DR/DR AA” value in test [1] stood at 3.336. Besides, the “DR/DR LNA” value in test [2] was determined as 3.322. Besides, in test [3], the “DR/DR LA” value came out at 3.455. For the same molecule, the “DR/DR OA” value in test [4] is 3.495. In addition, the “DR/DR PA” value in test [5] is recorded as 3.293. Also, the “DR/DR POA” value in test [6] came out at 3.923. The “DR/DR SA” value in test [7] stood at 2.574.

B9: 72T 73W 74E (protein, listed as Rattus norvegicus)
chain: AFDGTWKVDRNENYEKFMEKMGINVVKRKLGAHDNLKLTITQEGNKFTVKESSNFRNIDVVFELGVDFAYSTWEGTELTGTWTMEGNKLVGKFKRVDNGKELIAVREISGNELIQTYTYEGVEAKRIFKKE
modifications: PEPTIDE (1)...(131) wild-type rat intestinal fatty acid binding protein
Regarding B9, the “DR/DR AA” value in test [1] is 2.442. The “DR/DR LNA” value in test [2] was found to be 3.818. Besides, in test [3], the “DR/DR LA” value is 3.254. Besides, in test [4], the “DR/DR OA” value came out at 2.200. The “DR/DR PA” value in test [5] is on record as 3.842. Also, the “DR/DR POA” value in test [6] was 5.353. Also, the “DR/DR SA” value in test [7] is 0.877.

B10: 72T 73V 74V (protein, listed as Rattus norvegicus)
chain: AFDGTWKVDRNENYEKFMEKMGINVVKRKLGAHDNLKLTITQEGNKFTVKESSNFRNIDVVFELGVDFAYSTVVGTELTGTWTMEGNKLVGKFKRVDNGKELIAVREISGNELIQTYTYEGVEAKRIFKKE
modifications: PEPTIDE (1)...(131) wild-type rat intestinal fatty acid binding protein
For the molecule B10, in test [1], the “DR/DR AA” value was found to be 3.237. Moreover, the “DR/DR LNA” value in test [2] is on record as 3.618. The “DR/DR LA” value in test [3] stood at 3.502. The “DR/DR OA” value in test [4] is recorded as 3.166. Further, the “DR/DR PA” value in test [5] turned out to be 2.987. In test [6], the “DR/DR POA” value amounted to 4.015. The “DR/DR SA” value in test [7] was 1.918.

B11: 72G 73W (protein, listed as Rattus norvegicus)
chain: AFDGTWKVDRNENYEKFMEKMGINVVKRKLGAHDNLKLTITQEGNKFTVKESSNFRNIDVVFELGVDFAYSGWDGTELTGTWTMEGNKLVGKFKRVDNGKELIAVREISGNELIQTYTYEGVEAKRIFKKE
modifications: PEPTIDE (1)...(131) wild-type rat intestinal fatty acid binding protein
In the case of B11, the “DR/DR AA” value in test [1] came out at 2.260. Moreover, the “DR/DR LNA” value in test [2] came to 3.637. Also, the “DR/DR LA” value in test [3] was determined as 2.698. In addition, the “DR/DR OA” value in test [4] is on record as 1.106. Further, in test [5], the “DR/DR PA” value was 2.968. Besides, in test [6], the “DR/DR POA” value is reported as 4.082. Besides, in test [7], the “DR/DR SA” value worked out at 0.294.
